In patent US12510548B2, “Method of determining toxicity of an immunomodulatory drug for use in humans” (The Jackson Laboratory, priority 2017, dated 2025):
Read-outs that look alike come from different tables or passages of the source.

What was measured:
NK cells = settings: cited from earlier work
hPBMC humanized NSG mice [1] = settings: mouse, in vivo
Method: Rectal temperature of the mice of Examples 5 and 6 was measured before treatment and again immediately before each time-point bleed. […] Rectal temperature was measured in hPMBCs humanized mice of 10 donors injected with control PBS, OKT3, and anti-CD28. The number of mice for each group was 2-5 and data are presented as mean±SEM.
Rectal temperature of the mice was measured before treatment and again immediately before each time-point bleed. Temperature was measured by the insertion of a rectal thermocouple probe and waiting until a stable reading was obtained.

non-humanized mice = assay: Administration of antibodies to non-humanized mice, cytokine responses; settings: mouse, in vivo
hPBMC humanized NSG mice [2] = settings: mouse, in vivo; remark: listed apart in the source
Excerpt: The clinical score in the mice was monitored by performing the signs and the grading of scores as follow: Score: 0=normal activity; 1=normal activity, piloerection, tiptoe gait; 2=hunched, reduced activity but still mobile; 3=hypomotile but mobile when prompted; 4=moribund (point of death). Mice with a clinical score of 4 were euthanized.
As in a reference by Brady et al., Clinical & Translational Immunology, 2014, the inventors performed the signs and the grading of scores as follow: Score: 0=normal activity; 1=normal activity, piloerection, tiptoe gait; 2=hunched, reduced activity but still mobile; 3=hypomotile but mobile when prompted; 4=moribund (point of death). Mice with a clinical score of 4 were euthanized.

human PBMCs = assay: In vitro PBMC assay of cytokine release (drug-coated plate); type: cell-based; settings: donor 213; anti-CD28 10 μg/well, OKT3 1 mg/ml; supernatant day 2
Method: Day −1: Coated the plate with drugs: dilute drug (e.g., an antibody) in PBS; leave plate open under hood.
Day 0: Process PBMCs from each donor. PBMCs were from donor 213, 309, 345, or 366. Thaw PBMCs in supplemented RPMI and wash once. Count cells and re-suspend in supplemented RPMI at 1×10^6 cells/ml. Wash coated wells twice with 200 μl PBS and then once with 200 μL supplemented RPMI. Plate 100 μl of cells in each well (for a total of 1×10^5 cells per well).
Day 2: Harvest supernatant from each well and measure the cytokine level using a BD CBA Th1/Th2 II kit.
The two methods for determining cytokine release levels after a drug treatment were compared for treatment of PBMCs from four different donors with an anti-CD28 antibody (Ancell, Cat. No. 177-824). For the in vitro assay, anti-CD28 was dosed at 10 μg/well in the 96 well plates. For the in vivo method, anti-CD28 was dosed at 1 mg/kg. Supernatants of the in vitro PBMC culture wells and serum from the mice were collected and cytokine levels were measured. Antibody OKT3 (0.5 mg/kg for the in vivo assay or 1 mg/ml for the in vitro assay) was used as a positive control and either PBS or isotype antibodies were used as negative controls in the in vivo assay or the in vitro assay, respectively. The cytokine levels determined are presented in FIGS. 14A (IFN-γ and IL-10) and 14B (IL-6 and IL-4) as mean values±standard error of the mean (SEM).

hPBMC humanized NSG mice [3] = assay: Human cytokine release in sera of hPBMC humanized NSG mice after drug injection (BD CBA Th1/Th2 II kit); settings: mouse, in vivo
Method: PBMCs of nine […] different donors were used to produce humanized NSG mice for these experiments. On day 6 of hPBMC engraftment (2×10^7 PBMCs/mouse), the mice were induced for human cytokine release by i.v. injection with antibodies OKT3 (anti-CD3 mAb; BioLegend, Cat. No. 317302) or ANC28.1/5D10 (also referred to as “ANC28”, “anti-CD28 mAb,” or “anti-CD28”; Ancell, Cat. No. 177-824). PBS buffer served as a negative control. The mice were bled at 2 and 6 hours, sera were collected and analyzed for cytokine concentrations using BD Cytometric Bead Array (CBA) Human Th1/Th2 Cytokine kit II (BD, Cat. No. 551809) (See, FIGS. 5A-5F).
FIGS. 5A-5F depict multiple graphs of concentration of different cytokines (i.e., IFN-γ, IL-6, IL-2, IL-10, IL-4, and TNF, respectively) measured at 2 and 6 hours after injection of antibodies OKT3 (anti-CD3 mAb) and ANC28 (anti-CD28) into sets of humanized mice for nine (9) different donors. Mice were i.v. injected with 0.5 mg/kg OKT3 or 1 mg/kg anti-CD28, and 5 ml/kg PBS (a negative control). Mice were bled at 2 and 6 hours and circulating cytokine concentrations were measured by BD CBA Th1/Th2 II kit.
To do so, a high number of PBMCs (i.e., 5×10^7/mouse) was engrafted into the humanized NSG mice. On day 6, the mice received the drug and a cytokine release profile was determined. Here, the IFN-γ and Il-10 levels were evaluated as in the above-mentioned experiments using 2×10^7 PBMCs/mouse.
On day 6 after engraftment, the mice received the immunotherapeutic drug (mAb) and a cytokine release profile was determined in these three groups of mice. Mice were bled at 2 and 6 hours and circulating cytokine concentrations were measured by BD CBA Th1/Th2 II kit. FIGS. 10A-F depict the cytokine levels after drug injection in donor 309 humanized NSG mice engrafted with 2×10^7, 3×10^7, or 4×10^7PBMCs/mouse. FIG. 10A depicts the INFγ level for each group of mice. FIG. 10B depicts the IL-10 level for each group of mice. FIG. 10C depicts the IL-6 level for each group of mice. FIG. 10D depicts the IL-2 level for each group of mice. FIG. 10E depicts the IL-4 level for each group of mice. FIG. 10F depicts the TNF level for each group of mice.
In this study, the inventors examined different concentrations of […]® (pembrolizumab) to determine if there is dosage dependence in the CRS in humanized mice. 6-week old female NOD.Cg-Prkdc^scid Il2rg^tm1Wjl/SzJ (NSG, JAX stock number 005557) mice were irradiated with 100cGy X-ray at least 4 hours prior to human PBMCs engraftment. The PBMCs in these experiments were from donor 358. Purified/isolated human PBMCs were intravenously injected into the mice at 3×10^7 cells/mouse. Six days after PBMC engraftment, mice were iv injected with PBS (negative control), 0.5 mg/kg OKT3 (positive control), 2.5 mg/kg, 5 mg/kg, or 10 mg/kg […]®. There were 5 mice per group. These […]® dosages are in the range of dosages studied in clinical trials discussed on the U.S. prescribing information for […]®. Few adverse effect reports of severe cytokine release syndrome after […]® administration have been documented. Mice were bled at 2 and 6 hours and circulating cytokine concentrations were measured using a BD CBA Th1/Th2 II kit. As shown in FIGS. 12A-F, the level measured after injection of the positive control OKT3 was very high for each of IFN-γ, IL-10, IL-6, IL-2, IL-4, and TNF. […]

| Substance | cytokine release in vivo (NK cells) | body temperature (rectal) (hPBMC humanized NSG mice [1]) | cytokine responses in non-humanized mice (non-humanized mice) | clinical score (hPBMC humanized NSG mice [2]) | IFN-γ, IL-10, IL-6, and IL-4 levels versus control isotype antibody, in vitro (human PBMCs) | cytokine levels in non-irradiated mice compared to irradiated mice (hPBMC humanized NSG mice [3]) | major inflammatory cytokines in treated humanized mice (hPBMC humanized NSG mice [3]) | level of each of IFN-γ, IL-10, IL-6, IL-2, IL-4, and TNF (hPBMC humanized NSG mice [3]; iv, 0.5 mg/kg) | clinical score (hPBMC humanized NSG mice [2]; 5 mg/kg) | clinical score (hPBMC humanized NSG mice [2]; 10 mg/kg) | cytokine levels (hPBMC humanized NSG mice [3]; iv, 2.5 mg/kg) |
| --- | --- | --- | --- | --- | --- | --- | --- | --- | --- | --- | --- |
| alemtuzumab [CAMPATH 1-H] | high levels of TNF, IFN-γ and IL-6 | – | – | – | – | – | – | – | – | – | – |
| muromonab-CD3 [OKT3] | – | below 36 °C | did not induce the cytokine responses | 1 | much higher than levels determined after dosing with the control isotype antibody | consistently lower | significant increase in major inflammatory cytokines | very high | – | – | – |
| pembrolizumab | – | – | – | – | – | consistently lower | – | – | the same as positive control | the same as positive control | within the error range of the level measured for the PBS control group |
